Source: patent US20120208867, “HMGB1 BINDING NUCLEIC ACID MOLECULE AND APPLICATIONS THEREOF” (published 2012)

How the values were obtained:
Conditions in all cases: tags: N-terminal His-tag
His-tagged HMGB1 [1] = target: T1, His-tagged HMGB1 (UniProt P09429 P09429:1-215); experiment: SPR; 635 nM protein, 500 mM NaCl
Protocol: (§1) First, a sensor chip (trade name: Sensor Chip SA, manufactured by GE Heathcare) specially made for a BIACORE was set on the aforementioned BLACORE (registered trademark) X. Biotinylate deoxythymidine (5 μmol/L) was injected into the flow cell 2 of the aforementioned sensor chip using a running buffer and subjected to binding until the signal intensity (RU: resonance unit) reached about 1000 RU. For the aforementioned biotinylated deoxythymidine, 20-base-long deoxythymidine in which the 5′ end was biotinylated was used. Then, 10 μg/mL of an RNA aptamer was injected at a flow rate of 20 μL/min for 1 min into the aforementioned flow cells 1 and 2 of the aforementioned chip using a running buffer and subjected to binding until the signal intensity reached about 1000 RU. Next, 675 nmol/L of the aforementioned His-tag-added HMGB1 was injected at a flow rate of 20 μL/min for 30 sec using the aforementioned running buffer, and under the same conditions the aforementioned running buffer was allowed to flow continuously for washing. Simultaneously with the injection of the aforementioned His-tag-added HMGB1 and washing with the aforementioned running buffer, signal intensity was measured. The aforementioned running buffer was composed of 20 mmol/L of HEPES, 500 mmol/L of NaCl, 0.1 mmol/L of MgCl₂, and 0.1% Triton X-100 (registered trademark), with the pH thereof being 7.2. As a blocking agent for suppressing nonspecific binding, tRNA was used in a concentration of 1 mg/mL. In a comparative example, signal intensity was measured in the same manner except that the aforementioned comparative example RNA was used in place of the aforementioned example RNA aptamers.
An analysis of ability to bind to His-tag-added HMGB1 was carried out in the same manner as in (2) above of the aforementioned Example 1 except that the aforementioned RNA aptamers were used, the concentration of the aforementioned His-tag-added HMGB1 was 635 nmol/L, and the injection time of the aforementioned His-tag-added HMGB1 was 60 seconds. […]

His-tagged HMGB1 [2] = target: T1, His-tagged HMGB1; experiment: SPR; superior to R8c6_1; 160 nM protein
Protocol: as §1, with “675 nmol/L of the aforementioned His-tag-added HMGB1 was injected at a flow rate” left out, “The aforementioned running buffer was composed of 20 mmol/L of HEPES, 500 mmol/L of NaCl, 0.1 mmol/L of MgCl₂, and 0.1% Triton X-100 (registered trademark), with the pH thereof being 7.2. As a blocking agent for suppressing nonspecific binding, tRNA was used in a concentration of 1 mg/mL.” left out, “aptamers. […]” for “aptamers.”

His-tagged HMGB1 [3] = target: T1, His-tagged HMGB1; experiment: SPR; 200 nM protein; comparable to unmodified R8c6_1 at 150 mM NaCl
His-tagged HMGB1 [4] = target: T1, His-tagged HMGB1; experiment: SPR; comparable to unmodified R8c6_1 at 500 and 150 mM NaCl
His-tagged HMGB1 [5] = target: T1, His-tagged HMGB1; experiment: SPR; 200 nM protein, 150 mM NaCl; excellent binding
Protocol: as §1, with “675 nmol/L of the aforementioned His-tag-added HMGB1 was injected at a flow rate” left out, “The aforementioned running buffer was composed of 20 mmol/L of HEPES, 500 mmol/L of NaCl, 0.1 mmol/L of MgCl₂, and 0.1% Triton X-100 (registered trademark), with the pH thereof being 7.2. As a blocking agent for suppressing nonspecific binding, tRNA was used in a concentration of 1 mg/mL.” left out, “aptamers. […]” for “aptamers.”

His-tagged HMGB1 [6] = target: T1, His-tagged HMGB1; experiment: SPR; 150 nM protein; excellent binding
Protocol: (§2) The ability of each of the aforementioned RNA aptamers to bind to HMGB1 in which His-tag was added to the N-terminus (His-tag-added HMGB1) was examined. For the analysis of the aforementioned binding ability, a BIACORE (registered trademark) X (manufactured by GE Healthcare) was used according to its instruction manual.
as §1, with “675 nmol/L of the aforementioned His-tag-added HMGB1 was injected at a flow rate” left out

His-tagged HMGB1 [7] = target: T1, His-tagged HMGB1; experiment: SPR; 150 nM protein; listed in Table 7
Protocol: as §2
First, a sensor chip (trade name: Sensor Chip SA, manufactured by GE Heathcare) specially made for a BIACORE was set on the aforementioned BLACORE (registered trademark) X. Biotinylate deoxythymidine (5 μmol/L) was injected into the flow cell 2 of the aforementioned sensor chip using a running buffer and subjected to binding until the signal intensity (RU: resonance unit) reached about 1000 RU. For the aforementioned biotinylated deoxythymidine, 20-base-long deoxythymidine in which the 5′ end was biotinylated was used. […] Simultaneously with the injection of the aforementioned His-tag-added HMGB1 and washing with the aforementioned running buffer, signal intensity was measured. […] In a comparative example, signal intensity was measured in the same manner except that the aforementioned comparative example RNA was used in place of the aforementioned example RNA aptamers.

T1 sequence (P09429 whole entry, one chain of several): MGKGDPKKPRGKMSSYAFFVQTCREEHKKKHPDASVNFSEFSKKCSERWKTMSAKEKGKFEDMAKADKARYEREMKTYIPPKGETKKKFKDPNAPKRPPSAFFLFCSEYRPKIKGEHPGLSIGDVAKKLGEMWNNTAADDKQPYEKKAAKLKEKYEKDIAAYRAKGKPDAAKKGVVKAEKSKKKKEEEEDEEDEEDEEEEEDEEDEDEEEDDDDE

B1: R8c6_1-1 (ssRNA)
RNA: GGGACGCUCACGUACGCUCAGAGUACAGUAAGACACGUAGCACCAGUCUGACGUUUGUCGUCAGUGCCUGGACGUGCAG
Does B1 bind (His-tagged HMGB1 [1])?
Result: binds

B2: R8c6_1-3 (ssRNA)
RNA: GGGACGCUCACGUACGCUCAGAGUACAGUAAGACACGUAGCACCAGUCUGACGUUUGUCGUCAGUGCCUGGACGUGC
Does B2 bind (His-tagged HMGB1 [1])?
Result: binds

B3: R8c6_1-4 (ssRNA)
RNA: GGGACGCUCACGUACGCUCAGAGUACAGUAAGACACGUAGCACCAGUCUGACGUUUGUCGUCAGUGCCUGGACGUG
Does B3 bind (His-tagged HMGB1 [1])?
Result: binds

B4: R8c6_1-25 (ssRNA)
RNA: GGGUAAGACACGUAGCACCAGUCUGACGUUUGUCGUCAGUGCCUGGACGUGCAGU
Does B4 bind (His-tagged HMGB1 [2])?
Result: binds

B5: R8c6_1-18-S2 (ssRNA)
RNA: GGGAGUACAGUAAGACACGUAGCACCAGUCGCGUUUGUCGCGUGCCUGGACGUGCAGU
Does B5 bind (His-tagged HMGB1 [2])?
Result: binds

B6: 2'F-R8c6_1 (2'F-CU-R8c6_1) (ssRNA)
RNA: GGGACGCUCACGUACGCUCAGAGUACAGUAAGACACGUAGCACCAGUCUGACGUUUGUCGUCAGUGCCUGGACGUGCAGU
modifications: 2'-F on all C and U
Does B6 bind (His-tagged HMGB1 [3])?
Result: binds

B7: 2'F-R8c6_1-18 (ssRNA)
RNA: GGGAGUACAGUAAGACACGUAGCACCAGUCUGACGUUUGUCGUCAGUGCCUGGACGUGCAGU
modifications: 2'-F on all C and U
Does B7 bind (His-tagged HMGB1 [4])?
Result: binds

B8: 2'F-C-R8c6_1 (ssRNA)
RNA: GGGACGCUCACGUACGCUCAGAGUACAGUAAGACACGUAGCACCAGUCUGACGUUUGUCGUCAGUGCCUGGACGUGCAGU
modifications: 2'-F on all C
Does B8 bind (His-tagged HMGB1 [5])?
Result: binds

B9: 2'F-U-R8c6_1 (ssRNA)
RNA: GGGACGCUCACGUACGCUCAGAGUACAGUAAGACACGUAGCACCAGUCUGACGUUUGUCGUCAGUGCCUGGACGUGCAGU
modifications: 2'-F on all U
Does B9 bind (His-tagged HMGB1 [5])?
Result: binds

B10: 2'F-R8c6_1-18-S6 (ssRNA)
RNA: GGGAGUACAGUAAGACACGUAGCACCAGUGUGCCUGGACGUGCAGU
modifications: 2'-F on all C and U
Does B10 bind (His-tagged HMGB1 [6])?
Result: binds

B11: 2'F-R8c6_1-25 (ssRNA)
RNA: GGGUAAGACACGUAGCACCAGUCUGACGUUUGUCGUCAGUGCCUGGACGUGCAGU
modifications: 2'-F on all C and U
Does B11 bind (His-tagged HMGB1 [6])?
Result: binds

B12: 2'F-R8c6_1-25-S6A3 (ssRNA)
RNA: GGGUAAGACACGUAGCACCAGUGUGCCUGGACGUGCGU
modifications: 2'-F on all C and U
Does B12 bind (His-tagged HMGB1 [7])?
Result: binds

B13: 2'F-R8c6_1-21-S6 (ssRNA)
RNA: GGGACAGUAAGACACGUAGCACCAGUGUGCCUGGACGUGCAGU
modifications: 2'-F on all C and U
Does B13 bind (His-tagged HMGB1 [6])?
Result: binds

B14: 2'F-R8c6_1-21-S8 (ssRNA)
RNA: GGGACAGUAAGACACGUAGCACCAGUGCCUGGACGUGCAGU
modifications: 2'-F on all C and U
Does B14 bind (His-tagged HMGB1 [6])?
Result: binds
